Reference: PMC7527721, “Beyond Toxin Transport: Novel Role of ABC Transporter for Enzymatic Machinery of Cereulide NRPS Assembly Line” (mBio, 2020)

T1: CesD, transmembrane protein of the ABC transporter CesCD (BACTH fusion) (Bacillus cereus F4810/72, UniProt Q20CI6 1-268)
T1 construct: CesD, transmembrane protein of the ABC transporter CesCD, B. cereus F4810/72, NCBI ABK00530.1; also called T25-CesD; source: bacterial two-hybrid (BACTH) fusion, E. coli BTH101; not shown: T18 or T25 fragment of B. pertussis adenylate cyclase (several combinations tested), N-terminal or C-terminal, kept
T1 sequence: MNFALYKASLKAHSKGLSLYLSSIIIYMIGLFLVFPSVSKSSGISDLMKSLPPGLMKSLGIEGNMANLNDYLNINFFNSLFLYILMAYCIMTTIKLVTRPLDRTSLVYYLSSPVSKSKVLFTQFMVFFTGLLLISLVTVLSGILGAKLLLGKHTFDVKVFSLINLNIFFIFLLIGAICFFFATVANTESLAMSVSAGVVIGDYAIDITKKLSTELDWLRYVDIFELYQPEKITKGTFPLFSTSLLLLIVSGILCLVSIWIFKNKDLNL


Experiments:
[1] = target: C-terminal condensation domain C* of CesA (BACTH fusion) (Bacillus cereus F4810/72) (UniProt Q20CI9); experiment: two-hybrid; BACTH in E. coli BTH101, β-galactosidase activity (Miller assay, ONPG, 28°C) of cells from LB-IPTG plates, normalized to the negative control (T18 and T25 alone)
[2] = target: T1, CesD, transmembrane protein of the ABC …; experiment: as above; conditions: partners not purified

Molecule	decrease in β-galactosidase activity against wild-type CesC [1]	β-galactosidase activity, fold of the negative control [2]
CesC K40M (BACTH fusion) (from UniProt Q20CI7 1-291) (natural protein)	30%	–
CesC, ATPase of the ABC transporter CesCD (BACTH fusion) (natural protein, also called T18-CesC; CesC-T18; source: bacterial two-hybrid (BACTH) fusion, E. coli BTH101; not shown: T18 or T25 fragment of B. pertussis adenylate cyclase (several combinations tested), N-terminal or C-terminal, kept) MIKIEGLTKEFGNGKGIFDVTFEVKQGEVFGFLGPNGAGKSTTIRHLMGFIKPSKGAATINGFDCWKEADQVKKRVGYLPGEIAFPEEMTAYDFIRLIAGMKGMSDLGRAEEFIEKFQLDMRVHIKKMSKGMKQKLAIVAAFLHDPDILILDEPSTGLDPLMQNILVDFILEEKKCGKTILISSHIFDEIKDTADTICIIKNGKIVESGDLKTLKSAQKRYLKAYFTQEVDVELLQRSNLQIEKVENLVATILIQQNINEIMRELMKYDLINVEIMEPEIKDIFIKHYENR	–	~20 fold
